Results as given in patent publication US20250090677A1 (MULTITUDE THERAPEUTICS, published 2025).
Residue numbers refer to the chain shown, from its start.

Columns and labels:
cyno monkey CDH6-ECD-His = molecular target: T1, cyno monkey CDH6-ECD-His (cyno monkey, UniProt A0A2K5TW62 54-615); test: ELISA, antigen coated at 1 ug/mL, 3-fold antibody dilutions, HRP anti-human antibody, OD450
T1 construct: extracellular domain; Bought protein; also called Cyno CDH6-ECD-His; not shown: His tag
T1 sequence: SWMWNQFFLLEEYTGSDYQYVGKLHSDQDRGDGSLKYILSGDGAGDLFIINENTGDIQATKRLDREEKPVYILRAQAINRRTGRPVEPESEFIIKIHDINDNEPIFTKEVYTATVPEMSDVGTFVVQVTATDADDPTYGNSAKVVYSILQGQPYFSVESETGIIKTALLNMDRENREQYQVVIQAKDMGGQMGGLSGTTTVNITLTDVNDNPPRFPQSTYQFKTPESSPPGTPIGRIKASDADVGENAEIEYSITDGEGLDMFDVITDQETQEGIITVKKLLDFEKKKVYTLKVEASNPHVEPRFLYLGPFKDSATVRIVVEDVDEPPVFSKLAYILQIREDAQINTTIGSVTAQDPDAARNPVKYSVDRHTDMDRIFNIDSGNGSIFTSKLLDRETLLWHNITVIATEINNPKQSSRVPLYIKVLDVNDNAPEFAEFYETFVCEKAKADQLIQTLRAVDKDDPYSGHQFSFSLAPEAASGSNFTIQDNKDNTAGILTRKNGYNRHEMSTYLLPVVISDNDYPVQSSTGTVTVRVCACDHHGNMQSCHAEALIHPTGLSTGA
Method: (§1) CDH9 and […] are the most closely related family members to CDH6. Binding of CL069707-H1L1 on human CDH6, CDH9 and CDH10 ECD domains were analyzed by ELISA Binding Assay. Human […], CDH9-ECD-His and CDH10-ECD-His antigens were obtained from Acro Biosystems, Inc. 100 μL of 1 μg/mL of the antigens diluted in PBS were added to 96 well plates and incubated in 4° C. overnight. The plates were washed 3 times with 300 μL of washing buffer. Then 100 μL/well of 1% BSA blocking reagent were added to the plates, and incubated at 37° C. for 1 h then the blocking reagent were discarded. A 3-fold serial dilution of CL069707-H1L1 was added to the plates and then incubated at 37° C. for 1 h. Then the plates were washed 3 times with 300 μL of washing buffer. 100 μL/well of HRP-conjugated anti-Human antibody diluted in 1% BSA were added to the plates and then incubated at 37° C. for 1 h. The plates were washed 3 times with 300 μL of washing buffer. 100 μL/well of TMB substrate were added to the plates and incubated for about 10 min in room temperature. Then the reaction was stopped with 100 μL/well of stopping solution. OD450 was read with a plate reader and the data were processed.
(§2) Binding of CL069707-H1L1 on human, cyno monkey, mouse or rat CDH6 antigen were analyzed by ELISA. Human, cyno monkey, mouse and rat CDH6-ECD-His antigens were obtained from Acro Biosystems, Inc. ELISA were done with the same methods as in example 3.1. CL069707-H1L1 binds to human, cyno monkey, mouse and rat CDH6-ECD-His antigens with similar EC50.

Human CDH6-ECD-His [1] = molecular target: T2, Human CDH6-ECD-His (human, UniProt P55285 54-615); test: as above
T2 construct: extracellular domain; Bought protein; also called human CDH6-ECD-His recombinant protein; Human CDH6-EC6D-His; not shown: His tag
T2 sequence (looked up): T1 sequence with H300Y, R457H
Method: as §1, §2

rat CDH6-ECD-His = molecular target: T3, rat CDH6-ECD-His (rat, UniProt P55280 54-615); test: as above
T3 construct: extracellular domain; Bought protein; not shown: His tag
T3 sequence (looked up): T1 sequence with E109D, S119A, L260H, K288R, V301I, E322D, L333P, T353A, R457H
Method: as §1, §2

Human CDH6-ECD-His [2] = molecular target: T2, Human CDH6-ECD-His; test: ELISA, antigen coated at 1 ug/mL
Method: as §1

B1: CL069707-H1L1 (antibody, human IgG1, kappa, V domains shown)
VH: EVQLVESGGGLVQPGGSLRLSCAASGFTFTTYAMNWVRQAPGKGLEWVARIRIKNNNYATYYADSVTDRFTISRDDSKNSLYLQMNSLKTEDTAVYYCVRPDYGNYGLAYWGQGTLVTVSS
VL: DIQLTQSPSSLSASVGDRVTITCSASSSISSHYLHWYQQKPGKSPKLLIYRSFYLASGVPSRFSGSGSGTDFTLTISSLQPEDFATYYCQQDIVPLTFGQGTKLEIKR
notes: Humanized IgG1/kappa, produced in 293 cells; also called humanized CL069707-H1L1
EC50 (read off the curve) (cyno monkey CDH6-ECD-His): ~0.1 nM | EC50 (read off the curve) (Human CDH6-ECD-His [1]): ~0.1 nM | EC50 (read off the curve) (rat CDH6-ECD-His): ~0.1 nM | EC50 (Human CDH6-ECD-His [2]): 0.1 nM
